Measured values from patent US20240076389A1 (NATIONAL RESEARCH COUNCIL OF CANADA, published 2024).

T1: mouse AXL extracellular domain (Sino cat. 51026-M08H) (mouse, UniProt Q00993 19-445)
T1 construct: extracellular domain; Bought protein; also called mouse AXL ECD
T1 sequence (looked up): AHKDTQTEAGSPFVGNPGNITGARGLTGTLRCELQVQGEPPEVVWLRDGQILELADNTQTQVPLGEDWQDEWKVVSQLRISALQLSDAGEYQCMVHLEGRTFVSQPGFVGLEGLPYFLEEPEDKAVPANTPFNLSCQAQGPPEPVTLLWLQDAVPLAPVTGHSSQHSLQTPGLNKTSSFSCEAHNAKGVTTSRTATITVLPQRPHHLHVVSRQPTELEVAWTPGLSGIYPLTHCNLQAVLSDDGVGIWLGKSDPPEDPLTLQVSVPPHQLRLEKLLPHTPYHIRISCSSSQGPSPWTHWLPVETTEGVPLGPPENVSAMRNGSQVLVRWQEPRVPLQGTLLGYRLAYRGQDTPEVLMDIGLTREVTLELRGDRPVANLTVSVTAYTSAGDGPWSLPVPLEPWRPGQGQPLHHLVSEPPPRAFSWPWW

T2: recombinant human AXL extracellular domain, C-terminally His8-tagged (rhAXL-ECD) (human, UniProt P30530 26-451)
T2 construct: Made in CHO cells; also called (rh)AXL-ECD His8; human AXL ECD
T2 sequence: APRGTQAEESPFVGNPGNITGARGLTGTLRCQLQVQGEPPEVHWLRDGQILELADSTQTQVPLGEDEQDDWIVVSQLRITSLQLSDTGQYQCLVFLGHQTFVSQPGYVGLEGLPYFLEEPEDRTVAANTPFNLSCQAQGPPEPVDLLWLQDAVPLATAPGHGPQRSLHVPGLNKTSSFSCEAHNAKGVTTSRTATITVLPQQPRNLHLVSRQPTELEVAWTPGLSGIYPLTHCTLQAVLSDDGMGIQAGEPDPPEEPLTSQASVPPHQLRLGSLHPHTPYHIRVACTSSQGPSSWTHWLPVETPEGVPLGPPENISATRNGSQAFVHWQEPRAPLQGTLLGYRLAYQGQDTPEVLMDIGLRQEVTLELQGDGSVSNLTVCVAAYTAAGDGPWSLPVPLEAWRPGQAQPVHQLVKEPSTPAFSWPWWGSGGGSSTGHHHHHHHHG

T3: human AXL expressed on the cell surface of tumor cell lines (human, UniProt P30530 26-894)
T3 construct: whole, on cells; also called cell surface-expressed AXL; cell-based AXL
T3 sequence (looked up): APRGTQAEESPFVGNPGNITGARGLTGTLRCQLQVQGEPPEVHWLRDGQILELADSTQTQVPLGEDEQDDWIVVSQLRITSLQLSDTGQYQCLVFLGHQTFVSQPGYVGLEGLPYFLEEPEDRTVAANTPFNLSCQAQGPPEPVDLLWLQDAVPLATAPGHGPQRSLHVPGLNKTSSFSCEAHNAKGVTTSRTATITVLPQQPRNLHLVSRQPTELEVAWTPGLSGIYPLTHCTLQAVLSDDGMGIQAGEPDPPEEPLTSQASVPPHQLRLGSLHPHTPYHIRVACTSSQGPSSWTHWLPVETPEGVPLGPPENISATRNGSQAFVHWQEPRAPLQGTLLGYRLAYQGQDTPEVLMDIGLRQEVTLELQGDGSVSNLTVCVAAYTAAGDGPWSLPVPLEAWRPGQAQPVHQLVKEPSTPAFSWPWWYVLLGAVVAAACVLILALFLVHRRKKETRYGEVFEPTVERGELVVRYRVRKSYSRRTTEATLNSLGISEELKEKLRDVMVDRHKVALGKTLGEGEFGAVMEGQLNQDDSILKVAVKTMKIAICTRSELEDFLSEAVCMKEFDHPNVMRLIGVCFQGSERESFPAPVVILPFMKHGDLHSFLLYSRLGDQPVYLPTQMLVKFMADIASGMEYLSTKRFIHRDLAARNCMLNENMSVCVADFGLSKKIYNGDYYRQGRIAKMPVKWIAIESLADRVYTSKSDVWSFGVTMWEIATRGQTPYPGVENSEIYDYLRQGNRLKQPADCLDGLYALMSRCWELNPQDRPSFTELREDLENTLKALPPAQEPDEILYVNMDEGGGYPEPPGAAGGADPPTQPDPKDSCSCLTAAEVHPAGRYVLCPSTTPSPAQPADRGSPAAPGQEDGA


What was measured:
[1] = molecular target: T1, mouse AXL extracellular domain (Sino …); test: ELISA on coated mouse AXL ECD (100 ng/well)
Procedure: (§1) ELISA. ELISAs against human, cyno and mouse AXL ECDs were conducted by immobilizing 100 ng of each protein in wells of Nunc MaxiSorp microplates overnight. Human AXL (aa 1-451) and cyno AXL (aa 1-449) were produced recombinantly as described in Example 10. Mouse AXL was purchased from Sino (cat. 51026-M08H). The next day, plates were blocked with 5% (w/v) dried milk in PBS. Murine mAbs (either hybridoma- or recombinantly-produced) or VHH-Fcs were diluted in PBS containing 1% BSA and 0.1% Tween-20 and added to wells for 2 hours at room temperature. Wells were washed 5× with PBS containing 0.1% Tween-20, then HRP-labeled protein A (diluted 1:1000 in PBS containing 1% BSA and 0.1% Tween™-20) was added to wells for 1 hour at room temperature. Wells were washed again 5× with PBS/0.1% Tween-20 and developed using TMB substrate. Absorbance was measured at 450 nm. As a positive control for mouse AXL binding, a commercial anti-mouse AXL mAb (clone 175128, R&D Systems MAB8541, rat IgG2A) was used and detected with donkey […] secondary antibody.

[2] = molecular target: T2, recombinant human AXL extracellular …; test: ELISA on coated AXL ECD (100 ng/well), HRP-protein A
Procedure: as §1

[3] = molecular target: T1, mouse AXL extracellular domain (Sino …); test: ELISA on coated mouse AXL ECD (100 ng/well), VHH-Fc
Procedure: as §1

[4] = molecular target: T3, human AXL expressed on the cell surface …; test: FACS on MDA-MB-231 luciferase cells, apparent Kd, human Fc format
Procedure: (§2) FACS binding assay. Adherent cells were dissociated with non-enzymatic Sigma Cell Dissociation Solution (Cat. No. C5789). Cells suspensions were added to polypropylene, V-bottom 96-well plates and incubated for 2 hours on ice with primary antibodies at concentrations ranging from 100 nM to 0.001 nM or at a single dose of 100 nM (for the non-specific control). After incubation and washes, cells were incubated with fluorescently labeled secondary antibody (Alexa Fluor® 488 anti-human IgG from Jackson Cat. No 709-546-098) for 1 hour on ice, then washed. Cell viability was determined using Fixable viability dye 450 (20 min on ice). Stained cells were fixed in 1% formaldehyde at 4° C. and stored at 4° C. until acquisition which was performed the next day.
(§3) Binding of recombinant chimeric Abs to three cell lines was assessed by FACS as described above. The apparent Bmax and Kd determination is shown below in Table 14.

[5] = molecular target: T3, human AXL expressed on the cell surface …; test: FACS on NCI-H292 cells, apparent Kd, human Fc format
Procedure: as §2, §3

binding result [1]	EC50 [2] [pM]	binding result [3]	Kd [4] [pM]	Kd [5] [pM]	Binder
no binding	2000	–	–	–	hFC-F107-10G1 (antibody, human IgG1, kappa, V domains shown, Chimeric mAb, human IgG1 / human kappa constant regions; also called mAb F107-10G1) VH: EVNLVESGGGVVKPGASLKLSCEASGFTFSNYGMSWVRQTSDKRLEWVASISGGGGRTYYLDNVKGRFIISRENAKNTLYLQMSSLKSEDTALFYCARGARASYFAMDYWGQGSSVTVSS VL: VIVMTQSHKFMSTSVGDRVSITCKASQDVTTAVAWYQQKPGQSPKLLIYWASTRHTGVPDRFTGSGSGTDYSLTISNVQTEDLAFYYCQQHFTTPLTFGAGTKLELKR
–	–	no binding	233	105	NRC-sdAb001-Fc (VHH-human IgG1 Fc fusion) (Fc fusion, VHH fused N-terminally to human IgG1 Fc, made in HEK293 cells; also called NRC-sdAb0001-Fc; NRC-sdAb001-hIgG1; not shown: human IgG1 Fc) QVKLEESGGGLVQAGGSLRLSCTASASISSFDIMGWYRQAPGKQRELVAAITTLDIANYRDSVKGRFTISRDNAKNTVYLQMDSLKPEDTARYHCAAFQSDQNYWGQGTQVTVSS
